This note sets out measurements from publication PMC4910529 (The EMBO Journal, 2016).

Numbering of substitutions follows the chain as printed. Names may count otherwise. Where no end group is shown, it is not given here.

To fix the notation:
B1: SPOP ΔBACK (domain or fragment)
chain: KVVKFSYMWTINNFSFCREEMGEVIKSSTFSSGANDKLKWCLRVNPKGLDEESKDYLSLYLLLVSCPKSEVRAKFKFSILNAKGEETKAMESQRAYRFVQGKDWGFKKFIRRDFLLDEANGLLPDDKLTLFCEVSVVQDSVNISGQNTMNMVKVPECRLADELGGLWENSRFTDCCLCVAGQEFQAHKAILAARSPVFSAMFEHEMEESKKNRVEINDVEPEVFKEMMCFIYTGKAPNLDKMADDLLAAADKYALERLKVMCEDALCSNLSVENAAEILILADLHSADQLKTQAVDFINYHASDVLETSG
B2: SPOP^28–359 (speckle‐type POZ protein, residues 28–359) (domain or fragment)
chain: KVVKFSYMWTINNFSFCREEMGEVIKSSTFSSGANDKLKWCLRVNPKGLDEESKDYLSLYLLLVSCPKSEVRAKFKFSILNAKGEETKAMESQRAYRFVQGKDWGFKKFIRRDFLLDEANGLLPDDKLTLFCEVSVVQDSVNISGQNTMNMVKVPECRLADELGGLWENSRFTDCCLCVAGQEFQAHKAILAARSPVFSAMFEHEMEESKKNRVEINDVEPEVFKEMMCFIYTGKAPNLDKMADDLLAAADKYALERLKVMCEDALCSNLSVENAAEILILADLHSADQLKTQAVDFINYHASDVLETSGWKSMVVSHPHLVAEAYRSLASA
B3: SPOP mutBACK (SPOP 28–359 Y353E) (domain or fragment)
chain: B2 chain with Y326E
B4: Puc peptide, residues 91–107 of Puckered, fluorescein-labelled (peptide)
peptide: ENLACDEVTSTTSSSST-NH2
modifications: not fully specified (N-terminus)

Series [1] has as its target SPOP mutBTB (SPOP 28–359 L186D L190D L193D I217K) (UniProt O43791). In words: AUC.
For series [2] the target is unchanged. In words: CG-MALS.
For series [3], the target named is SPOP mutBACK (SPOP 28–359 Y353E) (UniProt O43791). Nature of the series: CG-MALS.
For series [4] the target is unchanged. Nature of the series: cross-linking.
Series [5] concerns the target SPOP X‐BACK. Nature of the series: CG-MALS.
Series [6] deals with the molecule itself. Nature of the series: cross-linking.
Series [7] deals with the molecule itself. Nature of the series: native MS.
Series [8] concerns the molecule itself. Nature of the series: CG-MALS.
For series [9], the target named is B2. In words: SEC. In general terms: In gel filtration, larger molecules generally elute earlier.
The target of series [10] is B3. In words: fluorescence polarisation.

One may read the Kd as a measure of binding affinity in units of concentration. The term stoichiometry N denotes a count of units in the complex or per binding partner. For “SPOP mutBTB (SPOP 28–359 L186D L190D L193D I217K) (from UniProt O43791 28-359) (domain or fragment)”, the Kd in series [1] amounted to 32.5 µM; in series [2], 36 µM. The same molecule yielded a stoichiometry N in series [2] of 2. “SPOP mutBACK (SPOP 28–359 Y353E) (from UniProt O43791 28-359) (domain or fragment)”: the stoichiometry N in [3] and in series [4] was 2 throughout. Molecule SPOP X‐BACK showed a dissociation constant Kd in series [5] of 118 µM. As to B1, the “stoichiometry N” value in series [6] was 2. For B2, in [7], the “stoichiometry N” value worked out at 8. For the same molecule, in series [8], the Kd stood at 2400 nM. B3: the binding result in series [9] was “binds”. Consider B4, for which the Kd in [10] came out at 4.1 µM. In other words, the single-digit micromolar range.
